From patent US20180319873A1 (TAIPEI MEDICAL UNIVERSITY, published 2018)

T1: His-CaENO1 (recombinant Candida albicans alpha-enolase with His tag) (Candida albicans, UniProt P30575 1-440)
T1 construct: Expressed from pQE30-CaENO1 in E. coli BL21, purified on Ni resin, about 49 kDa; also called recombinant CaENO1 protein; purified CaENO1; not shown: His tag from the pQE30 vector
T1 sequence (looked up): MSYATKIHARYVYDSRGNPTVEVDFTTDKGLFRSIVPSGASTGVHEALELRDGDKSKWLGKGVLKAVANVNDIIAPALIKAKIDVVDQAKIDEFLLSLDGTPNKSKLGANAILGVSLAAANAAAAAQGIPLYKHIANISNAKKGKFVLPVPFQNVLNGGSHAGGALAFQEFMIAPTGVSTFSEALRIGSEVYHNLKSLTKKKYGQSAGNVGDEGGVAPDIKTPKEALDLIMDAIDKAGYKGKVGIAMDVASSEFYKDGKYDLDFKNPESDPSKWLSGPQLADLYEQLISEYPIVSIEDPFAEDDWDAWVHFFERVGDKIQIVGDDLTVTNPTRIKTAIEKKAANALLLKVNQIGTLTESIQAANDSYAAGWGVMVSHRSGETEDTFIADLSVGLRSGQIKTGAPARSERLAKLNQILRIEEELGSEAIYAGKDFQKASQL


Legend:
[1] = molecular target: native CaENO1 of Candida albicans (alpha-enolase on the cell surface and in cell lysates) (Candida albicans) (UniProt P30575); assay: flow cytometry on C. albicans SC 5314 cells, 100 ug antibody (negative control)
[2] = molecular target: T1, His-CaENO1 (recombinant Candida …); assay: ELISA, serial dilution of CaS1 scFv on coated recombinant CaENO1; concentration at 50% of OD
[3] = molecular target: T1, His-CaENO1 (recombinant Candida …); assay: competitive ELISA, serial dilution of free CaENO1 mixed with 1 µg/mL CaS1 scFv, then added to coated CaENO1; printed as KD of CaS1 scFv
[4] = molecular target: T2, mENO1 (purified recombinant mouse ENO1) (mouse, UniProt P17182 1-434, limits assumed); assay: Western blot on purified ENO1 proteins
T2 construct: not shown: His tag, 'expressed and purified in the same way' as His-CaENO1
T2 sequence (P17182 whole entry): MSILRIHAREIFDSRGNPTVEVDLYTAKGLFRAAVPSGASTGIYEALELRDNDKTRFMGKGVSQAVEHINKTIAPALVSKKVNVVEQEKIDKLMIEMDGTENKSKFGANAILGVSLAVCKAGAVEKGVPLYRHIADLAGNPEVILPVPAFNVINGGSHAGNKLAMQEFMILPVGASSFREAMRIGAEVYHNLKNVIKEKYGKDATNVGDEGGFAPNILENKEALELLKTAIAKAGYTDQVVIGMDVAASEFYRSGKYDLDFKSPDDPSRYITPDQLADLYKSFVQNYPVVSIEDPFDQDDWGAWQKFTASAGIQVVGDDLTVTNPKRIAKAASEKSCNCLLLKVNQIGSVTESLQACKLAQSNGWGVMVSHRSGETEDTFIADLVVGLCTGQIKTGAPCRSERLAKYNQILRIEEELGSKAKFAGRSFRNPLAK

[5] = molecular target: T3, hENO1 (purified recombinant human ENO1) (human, UniProt P06733 1-434, limits assumed); assay: Western blot on purified ENO1 proteins
T3 construct: not shown: His tag, 'expressed and purified in the same way' as His-CaENO1
T3 sequence (P06733 whole entry): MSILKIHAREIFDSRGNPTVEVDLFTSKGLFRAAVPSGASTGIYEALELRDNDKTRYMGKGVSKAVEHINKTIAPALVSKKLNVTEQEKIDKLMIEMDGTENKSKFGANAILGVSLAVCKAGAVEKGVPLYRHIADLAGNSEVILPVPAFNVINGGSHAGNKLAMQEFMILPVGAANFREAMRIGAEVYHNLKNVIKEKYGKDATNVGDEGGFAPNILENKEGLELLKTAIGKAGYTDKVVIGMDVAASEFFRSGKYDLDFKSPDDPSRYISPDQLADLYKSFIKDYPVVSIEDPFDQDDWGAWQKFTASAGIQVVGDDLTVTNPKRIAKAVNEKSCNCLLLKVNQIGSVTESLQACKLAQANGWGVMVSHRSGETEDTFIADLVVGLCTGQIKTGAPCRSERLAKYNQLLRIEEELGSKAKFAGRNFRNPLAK

[6] = molecular target: T1, His-CaENO1 (recombinant Candida …); assay: ELISA, serial dilution of CaS1 scFv on coated His-CaENO1
[7] = molecular target: T1, His-CaENO1 (recombinant Candida …); assay: competitive ELISA, serial dilution of free His-CaENO1 mixed with 1 µg/mL CaS1, then added to coated His-CaENO1; printed as KD of CaS1 scFv

| Molecule | % FITC fluorescence reaction [1] | Kd [2] | Kd [3] | binding result [4] | binding result [5] | Kd [6] | Kd [7] |
| --- | --- | --- | --- | --- | --- | --- | --- |
| control scFv (irrelevant scFv) | 23% |  |  |  |  |  |  |
| CaS1 scFv (anti-CaENO1 scFv monoclonal antibody) (scFv, Chicken scFv from a phage library in pComb3X, expressed in E. coli, purified on Ni Sepharose; also called scFv CaS1; His-CaS1 scFv; not shown: His tag (and HA tag) from the pComb3X vector) scFv: ALTQPSSVSANLGGTVKITCSGGSGSYGWYQQKSPGSAPVTVIYSNNQRPSNIPSRFSGSPSGSTGTLTITGVQADDEAVYFCGSRDSSYVGVFGAGTTLTVLGQSSRSSTVTLDESGGGLQTPRGALSLVCKASGFTFIDYGMQWVRQAPGKGLEWVAGIGSSGSSTNYGAAVKGRATISRDDGQSTVRLQLNNLRAEDTGTYYCAKSAGGYCVNGAGCNGGSIDAWGHGTEVIVSS |  | 0.498 µg/mL | 4.45 µg/mL | binds | binds | 18.8 nM | 89 nM |
